Assay results from patent publication US20240052042A1 (Novartis, published 2024).

T1: human NPR2 on CHO cells (human, UniProt P20594 23-1047)
T1 sequence (looked up): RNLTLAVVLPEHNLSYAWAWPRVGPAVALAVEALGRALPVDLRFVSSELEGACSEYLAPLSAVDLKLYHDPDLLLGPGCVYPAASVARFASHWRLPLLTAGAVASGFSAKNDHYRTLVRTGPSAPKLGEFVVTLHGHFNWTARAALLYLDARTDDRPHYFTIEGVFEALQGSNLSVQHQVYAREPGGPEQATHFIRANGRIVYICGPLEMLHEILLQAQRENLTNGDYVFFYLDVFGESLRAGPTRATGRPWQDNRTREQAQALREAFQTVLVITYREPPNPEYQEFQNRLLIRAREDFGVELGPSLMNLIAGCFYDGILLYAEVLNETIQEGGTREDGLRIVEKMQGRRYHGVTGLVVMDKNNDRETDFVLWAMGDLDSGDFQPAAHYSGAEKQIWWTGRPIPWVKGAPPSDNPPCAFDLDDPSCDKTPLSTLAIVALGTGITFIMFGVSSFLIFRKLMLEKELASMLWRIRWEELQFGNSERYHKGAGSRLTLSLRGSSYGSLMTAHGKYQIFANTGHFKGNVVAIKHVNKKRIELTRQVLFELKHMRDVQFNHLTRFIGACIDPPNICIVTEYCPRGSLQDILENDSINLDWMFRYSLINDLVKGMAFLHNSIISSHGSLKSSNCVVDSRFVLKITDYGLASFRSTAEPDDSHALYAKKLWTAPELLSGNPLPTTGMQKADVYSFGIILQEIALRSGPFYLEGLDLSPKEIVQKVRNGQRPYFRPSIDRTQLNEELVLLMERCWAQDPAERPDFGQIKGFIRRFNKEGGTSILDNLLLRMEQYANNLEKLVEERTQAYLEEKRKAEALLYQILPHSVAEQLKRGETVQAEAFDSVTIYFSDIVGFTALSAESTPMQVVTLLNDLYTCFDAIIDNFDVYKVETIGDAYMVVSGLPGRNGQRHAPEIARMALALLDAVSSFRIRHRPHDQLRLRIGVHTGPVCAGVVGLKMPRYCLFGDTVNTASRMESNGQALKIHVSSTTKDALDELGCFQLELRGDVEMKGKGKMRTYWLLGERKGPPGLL

T2: rNPR1-ANP complex (rat, UniProt P01160 124-151 (human entry), limits assumed)
T2 construct: rNPR1 antigen in the presence of ANP; also called rNPR1 + 100 nM ANP
T2 sequence: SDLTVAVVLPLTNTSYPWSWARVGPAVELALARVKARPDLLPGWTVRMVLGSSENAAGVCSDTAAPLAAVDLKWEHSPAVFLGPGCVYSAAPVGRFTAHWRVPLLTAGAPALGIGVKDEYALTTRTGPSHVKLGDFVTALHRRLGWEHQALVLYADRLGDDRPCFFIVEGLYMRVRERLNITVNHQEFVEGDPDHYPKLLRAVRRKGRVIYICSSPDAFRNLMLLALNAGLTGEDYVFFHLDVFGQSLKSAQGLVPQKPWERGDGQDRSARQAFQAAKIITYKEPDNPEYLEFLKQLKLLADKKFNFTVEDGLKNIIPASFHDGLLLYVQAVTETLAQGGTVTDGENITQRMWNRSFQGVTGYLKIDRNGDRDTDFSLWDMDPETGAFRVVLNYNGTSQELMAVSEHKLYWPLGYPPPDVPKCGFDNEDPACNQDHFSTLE
T2 sequence (peptide): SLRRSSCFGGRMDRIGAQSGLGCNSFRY

T3: hNPR1-ANP complex (human, UniProt P01160 124-151, limits assumed)
T3 construct: hNPR1 antigen in the presence of ANP; also called hNPR1 + 100 nM ANP
T3 sequence: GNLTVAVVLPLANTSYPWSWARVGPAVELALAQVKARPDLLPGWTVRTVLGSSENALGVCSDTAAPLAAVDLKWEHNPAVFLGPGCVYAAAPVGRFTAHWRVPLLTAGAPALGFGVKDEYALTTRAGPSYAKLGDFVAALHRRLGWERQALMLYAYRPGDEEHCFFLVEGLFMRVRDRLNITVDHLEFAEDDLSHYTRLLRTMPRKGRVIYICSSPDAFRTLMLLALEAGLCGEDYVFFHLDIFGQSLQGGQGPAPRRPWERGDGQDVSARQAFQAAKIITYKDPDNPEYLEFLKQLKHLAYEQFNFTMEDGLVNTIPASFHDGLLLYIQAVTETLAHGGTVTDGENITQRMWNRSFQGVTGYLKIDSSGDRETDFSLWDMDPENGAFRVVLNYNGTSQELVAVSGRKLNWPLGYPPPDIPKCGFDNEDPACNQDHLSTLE
T3 sequence (peptide): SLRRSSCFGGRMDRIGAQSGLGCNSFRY

T4: human Natriuretic Peptide Receptor 1 (hNPR1) (human, UniProt P16066 33-473, limits assumed)
T4 construct: pannings used NPR1-hFc; also called NPR1-hFc
T4 sequence: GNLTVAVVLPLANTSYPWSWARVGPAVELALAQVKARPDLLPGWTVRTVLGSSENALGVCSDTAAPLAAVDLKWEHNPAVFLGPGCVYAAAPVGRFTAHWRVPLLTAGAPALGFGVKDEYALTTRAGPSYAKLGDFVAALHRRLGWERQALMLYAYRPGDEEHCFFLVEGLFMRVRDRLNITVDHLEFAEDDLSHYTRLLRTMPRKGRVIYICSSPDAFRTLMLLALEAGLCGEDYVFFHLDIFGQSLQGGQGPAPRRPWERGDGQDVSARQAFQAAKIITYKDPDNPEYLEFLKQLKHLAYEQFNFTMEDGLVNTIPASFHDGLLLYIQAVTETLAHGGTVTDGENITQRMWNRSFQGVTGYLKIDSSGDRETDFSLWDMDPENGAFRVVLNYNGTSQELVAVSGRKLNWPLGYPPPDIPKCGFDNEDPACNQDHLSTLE

T5: rat NPR1 (rNPR1) (rat, UniProt P18910 29-469, limits assumed)
T5 construct: Soluble antigen
T5 sequence: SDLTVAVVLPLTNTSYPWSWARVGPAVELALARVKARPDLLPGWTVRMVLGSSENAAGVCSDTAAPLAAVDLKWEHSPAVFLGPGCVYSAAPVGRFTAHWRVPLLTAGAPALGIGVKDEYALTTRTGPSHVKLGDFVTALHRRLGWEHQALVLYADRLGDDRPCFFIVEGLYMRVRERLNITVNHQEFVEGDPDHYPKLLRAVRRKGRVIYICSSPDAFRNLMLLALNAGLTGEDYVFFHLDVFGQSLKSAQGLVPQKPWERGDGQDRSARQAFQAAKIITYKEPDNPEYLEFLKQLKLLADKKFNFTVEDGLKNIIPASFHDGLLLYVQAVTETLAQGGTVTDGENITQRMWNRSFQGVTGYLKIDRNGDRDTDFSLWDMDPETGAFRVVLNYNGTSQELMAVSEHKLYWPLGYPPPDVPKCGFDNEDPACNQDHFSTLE


Experiments:
human NPR2 on CHO cells = biological target: T1, human NPR2 on CHO cells; experiment: cell-based or functional assay
rNPR1-ANP complex = biological target: T2, rNPR1-ANP complex; experiment: SET, FabCys
hNPR1-ANP complex = biological target: T3, hNPR1-ANP complex; experiment: SET, FabCys
[1] = biological target: T4, human Natriuretic Peptide Receptor 1 …; experiment: SET, FabCys
rat NPR1 (rNPR1) [2] = biological target: T5, rat NPR1 (rNPR1); experiment: SET, FabCys
rat NPR1 (rNPR1) [3] = biological target: T5, rat NPR1 (rNPR1); experiment: SET, FabCys; remark: listed apart in the source

cGMP generation EC50 (human NPR2 on CHO cells) [nM]	cGMP generation Y max (% of ANP) (human NPR2 on CHO cells)	Kd (rNPR1-ANP complex) [nM]	Kd (hNPR1-ANP complex) [nM]	Kd [1] [nM]	Kd (rat NPR1 (rNPR1) [2]) [nM]	rat/human KD ratio (rat NPR1 (rNPR1) [3])	Binder
> 500	< 1 % of ANP	–	–	–	–	–	XX16 (anti-NPR1 IgG) (antibody, V domains shown) VH: EVQLLESGGGLVQPGGSLRLSCAASGFTFSSYWMNWVRQAPGKGLEWVSVIESKGNYIFYADSVKGRFTISRDNSKNTLYLQMNSLRAEDTAVYYCARDRYSMIYSYGAGAFDYWGQGTLVTVSS VL: DIQMTQSPSSLSASVGDRVTITCRASQGISSYLAWYQQKPGKAPKLLIYTASTLQSGVPSRFSGSGSGTDFTLTISSLQPEDFATYYCQQTWRKPRTFGQGTKVEIK
–	–	0.3	0.1	32	3.3	< 5	XX04 (FabCys format) (Fab, V domains shown, Monovalent FabCys) VH: QVQLLESGGGLVQPGGSLRLSCAASGFTFSSYWMNWVRQAPGKGLEWVSAISSDGSYTYYADSVKGRFTISRDNSKNTLYLQMNSLRAEDTAVYYCARDRYSMIYSYGAGAFDYWGQGTLVTVSS VL: DIQMTQSPSSLSASVGDRVTITCRASQGISSYLAWYQQKPGKAPKLLIYTASTLQSGVPSRFSGSGSGTDFTLTISSLQPEDFATYYCQQEWVKPRTFGQGTKVEIK
–	–	0.5	0.2	16	3	< 5	XX12 (FabCys format) (Fab, V domains shown, Monovalent FabCys) VH: QVQLLESGGGLVQPGGSLRLSCAASGFTFSSYWMNWVRQAPGKGLEWVSAISSDGSYTYYADSVKGRFTISRDNSKNTLYLQMNSLRAEDTAVYYCARDRYSMIYSYGAGAFDYWGQGTLVTVSS VL: DIQMTQSPSSLSASVGDRVTITCRASQGISSYLAWYQQKPGKAPKLLIYTASTLQSGVPSRFSGSGSGTDFTLTISSLQPEDFATYYCQQIWMAPRTFGQGTKVEIK
–	–	0.5	0.2	21	2.9	< 5	XX07 (FabCys format) (Fab, V domains shown, Monovalent FabCys) VH: QVQLLESGGGLVQPGGSLRLSCAASGFTFSSYWMNWVRQAPGKGLEWVSAISSDGSYTYYADSVKGRFTISRDNSKNTLYLQMNSLRAEDTAVYYCARDRYSMIYSYGAGAFDYWGQGTLVTVSS VL: DIQMTQSPSSLSASVGDRVTITCRASQGISSYLAWYQQKPGKAPKLLIYTASTLQSGVPSRFSGSGSGTDFTLTISSLQPEDFATYYCQQIWTVPRTFGQGTKVEIK
